# Results published in paper PMC7498053.
# Biological target: RNA polymerase II (Pol II) immunopurified from HeLa cell nuclear extracts (human (endogenous in HeLa)) (UniProt P24928)
# Test: negative stain electron microscopy; minimal PIC (DNA/TBP/TFIIA/TFIIB/Pol II/TFIIF) assembled sequentially on biotinylated promoter DNA, GST-ORF24-NTD added last; purified on streptavidin beads, eluted with EcoRI, cross-linked with 0.05% glutaraldehyde; 2D and 3D classification and difference maps, ~20 A
substance,measurement,value
GST-ORF24-NTD (KSHV ORF24 residues 1-201 with an N-terminal GST tag) (domain or fragment),percent of PIC particle images with extra density,25%
